Measurements: patent publication US20240288446A1, “METHOD FOR DIAGNOSING FIBRINOLYTIC INSUFFICIENCY RELATED TO NEUTROPHIL EXTRACELLULAR TRAPS” (Hôpitaux Universitaires de Strasbourg, priority 2019, published 2024)

Tested on: septic shock plasma euglobulin fraction on fibrin-bound tPA
Experiment: Plasmin formation on tPA-fibrin surfaces from euglobulin fraction of septic shock plasma supplemented with plasminogen
Type: biochemical, human
Details: plasminogen normalized to 1.5 μM
Experimental: FIG. 5 represents the Fibrinolytic activity of plasma isolated from septic shock. The fibrinolytic activity of plasma was tested by incubating the corresponding euglobulin fraction with fibrin surfaces to which tPA (50 iu/ml) was previously bound. The euglobulin fraction contains plasminogen and plasminogen fragments bearing K1, K4 and K5 as identified by mass spectrometry (see text and Supplemental file). The amount of plasmin formed was quantified by measuring the change in absorbance at A405 nm using a chromogenic substrate selective for plasmin as indicated in FIG. 3. […]
Plasminogen was quantified with a functional activity assay as described with modifications.(41) Briefly, plasmas were diluted 1:50 in assay buffer (Phosphate 80 mM, NaCl 50 mM, BSA 2 mg/ml), supplemented with 75 i.u./ml urokinase, 1 mM tranexamic acid and 0.75 mM of the plasmin-selective chromogenic substrate in a final volume of 50 μl. […] Plasminogen fragments present in plasma were initially detected by Western blot as indicated above. […] Plasmin formation on fibrin matrices was measured using the euglobulin fraction from healthy control and patient plasmas as source of plasminogen as indicated above. […] Kinetics of plasminogen transformation into plasmin was followed during 1 h by measuring the release of pNA at A405 nm and the initial velocity of the reactions were calculated as indicated above. […]

B1: purified plasminogen: Human Glu-plasminogen, purified, over 99% pure; 92-kDa single-chain proenzyme (SEQ ID NO 1) (protein, listed as Homo sapiens)
chain: EPLDDYVNTQGASLFSVTKKQLGAGSIEECAAKCEEDEEFTCRAFQYHSKEQQCVIMAENRKSSIIIRMRDVVLFEKKVYLSECKTGNGKNYRGTMSKTKNGITCQKWSSTSPHRPRFSPATHPSEGLEENYCRNPDNDPQGPWCYTTDPEKRYDYCDILECEEECMHCSGENYDGKISKTMSGLECQAWDSQSPHAHGYIPSKFPNKNLKKNYCRNPDRELRPWCFTTDPNKRWELCDIPRCTTPPPSSGPTYQCLKGTGENYRGNVAVTVSGHTCQHWSAQTPHTHNRTPENFPCKNLDENYCRNPDGKRAPWCHTTNSQVRWEYCKIPSCDSSPVSTEQLAPTAPPELTPVVQDCYHGDGQSYRGTSSTTTTGKKCQSWSSMTPHRHQKTPENYPNAGLTMNYCRNPDADKGPWCFTTDPSVRWEYCNLKKCSGTEASVVAPPPVVLLPDVETPSEEDCMFGNGKGYRGKRATTVTGTPCQDWAAQEPHRHSIFTPETNPRAGLEKNYCRNPDGDVGGPWCYTTNPRKLYDYCDVPQCAAPSFDCGKPQVEPKKCPGRVVGGCVAHPHSWPWQVSLRTRFGMHFCGGTLISPEWVLTAAHCLEKSPRPSSYKVILGAHQEVNLEPHVQEIEVSRLFLEPTRKDIALLKLSSPAVITDKVIPACLPSPNYVVADRTECFITGWGETQGTFGAGLLKEAQLPVIENKVCNRYEFLNGRVQSTELCAGHLAGGTDSCQGDSGGPLVCFEKDKYILQGVTSWGLGCARPNKPGVYVRVSRFVTWIEGVMRNN
amount of plasmin formed after plasminogen supplementation (plasma samples S1, S3, S5): increased with a trend to normality | amount of plasmin formed after plasminogen supplementation (plasma samples S2, S4, S6): insufficient or scant response
